Data set [1] in a line: Triton X-114 partition assay. Type of data set: physicochemical. The settings on record: partition into aqueous phase of Triton X-114 at 37° C.; listed as Full length PH20. As to the method: Solubility of a hyaluronidase can be determined by any method known to one of the skill in the art. One method for determining solubility is by detergent partitioning. […] For example, the solubility of the PH20 polypeptides described herein is assessed as described in Example 4. Membrane-anchored hyaluronidases, such as lipid-anchored hyaluronidases, including GPI-anchored hyaluronidases, will partition into the detergent-rich phase, but will partition into the detergent-poor or aqueous phase following treatment with Phospholipase C. Phospholipase C is an enzyme that cleaves the […] found in GPI-anchored proteins. Treatment with PLC will cause release of GPI-linked proteins from the outer cell membrane.
The samples were heated to 37° C. for 3 minutes to induce phase separation and centrifuged for 3 min at 4000 g at room temperature. Aqueous and detergent phases were removed for SDS-PAGE analysis and Western blotting. Rabbit anti-PH20 IgG (0.5 μg/mL) was used as the primary antibody and HRP-conjugated goat anti-Rabbit IgG (0.1 ng/mL, Cat#DC03L, EMD) was used as the secondary antibody. Full length human PH20, which partitions strongly into the detergent phase, was used as a control.

Data set [2] can be described thus: Microtiter hyaluronidase activity assay with biotinylated-hyaluronic acid. Type of data set: biochemical. Conditions: 72 hour post transfection supernatant.
In the next data set the test system is CHO-S cells. As to the kind of experiment: PI-PLC treatment of expressing cells, Western blot of media and cells. Type of data set: cell-based, Chinese Hamster. Conditions: cells incubated with PI-PLC for 2 hours. As to the method: In this example, following transient expression, as described in Example 2 above, the media and cells were harvested separately and analyzed for PH20 expression and solublility by Western blot analysis. Solubility of the C-terminus truncation mutants was determined by examining whether the expressed protein was present in the growth media or in the cells. […] Cells expressing these mutants were treated with phosphoinositol-phospholipase C (PI-PLC), which cleaves the GPI-anchor allowing the release of soluble protein into the media, and the presence of PH20 in the resulting media and cells was determined by Western blot analysis.
Following expression of rHuPH20 in CHO—S cells for 72 hours, as described in Example 2A above, the media and cells were harvested separately. The cells were washed with serum-free media followed by the addition of 2 mL serum-free media per well. PI-PLC (0.5 units/well) was added to each well and the cells were incubated in the PI-PLC for 2 hours. The resultant media and cells were analyzed by Western blot analysis as described above.
Two plates each of rHuPH20 expressing CHO—S cells, one for treatment with PI-PLC and one without treatment with PI-PLC, were prepared for each C-terminus mutant as described in Example 2B above. Following expression for 48 hours, for cells untreated with PI-PLC, the media and cells were harvested separately. The harvested media was spun down, concentrated to a volume of 10 mL, and buffer exchanged into PBS using an Amicon 30 kD MWCO concentrator. The cells were rinsed with cold PBS and scraped and resuspended in 1.2 mL PBS with protease inhibitor Set III (Cat No. 539134, Calbiochem). The resuspended cells were briefly sonicated to prepare whole-cell extract. For PI-PLC treatment of cells, following expression for 48 hours, the untreated media was harvested, as described above. The cells were rinsed once with fresh CD DG44 medium with Glutamax-1, and the media was replaced with 12 mL fresh detergent free CD DG44 medium supplemented with Glutamax-1 with 3.0 units PI-PLC per dish, and the cells were incubated for 2 hours at 37° C. with 5% CO2. After 2 hours, the PI-PLC media and cells were harvested separately, as described above. The resultant untreated media and cells, and PI-PLC treated media and cells, were analyzed by Western blot analysis as described above.

B1: SPAM1-VASL: full length human PH20, precursor 509 aa (SEQ ID NO:1), mature 474 aa (SEQ ID NO:108) (protein, listed as Homo sapiens)
chain: MGVLKFKHIFFRSFVKSSGVSQIVFTFLLIPCCLTLNFRAPPVIPNVPFLWAWNAPSEFCLGKFDEPLDMSLFSFIGSPRINATGQGVTIFYVDRLGYYPYIDSITGVTVNGGIPQKISLQDHLDKAKKDITFYMPVDNLGMAVIDWEEWRPTWARNWKPKDVYKNRSIELVQQQNVQLSLTEATEKAKQEFEKAGKDFLVETIKLGKLLRPNHLWGYYLFPDCYNHHYKKPGYNGSCFNVEIKRNDDLSWLWNESTALYPSIYLNTQQSPVAATLYVRNRVREAIRVSKIPDAKSPLPVFAYTRIVFTDQVLKFLSQDELVYTFGETVALGASGIVIWGTLSIMRSMKSCLLLDNYMETILNPYIINVTLAAKMCSQVLCQEQGVCIRKNWNSSDYLHLNPDNFAIQLEKGGKFTVRGKPTLEDLEQFSEKFYCSCYSTLSCKEKADVKDTDAVDVCIADGVCIDAFLKPPMETEEPQIFYNASPSTLSATMFIVSILFLIISSVASL
modifications: Human PH20 cDNA encoding amino acids 1-509
Turning to B1, the Soluble result in data set [1] was “insoluble”. Moreover, in data set [2] (Table 6), the “pH 5.5 Activity” value is 0.891 Units/ml and the “pH 7.4 Activity” value stood at 1.8045 Units/ml. Besides, the “Expressed in Media Following Addition of PI-PLC” value (“Expressed” for short) in the data set with CHO-S cells is recorded as “YES”.

B2: SPAM1-IISS: C-terminally truncated human PH20, precursor 505 aa (SEQ ID NO:4), mature 470 aa (SEQ ID NO:56) (protein, listed as Homo sapiens)
chain 1: MGVLKFKHIFFRSFVKSSGVSQIVFTFLLIPCCLTLNFRAPPVIPNVPFLWAWNAPSEFCLGKFDEPLDMSLFSFIGSPRINATGQGVTIFYVDRLGYYPYIDSITGVTVNGGIPQKISLQDHLDKAKKDITFYMPVDNLGMAVIDWEEWRPTWARNWKPKDVYKNRSIELVQQQNVQLSLTEATEKAKQEFEKAGKDFLVETIKLGKLLRPNHLWGYYLFPDCYNHHYKKPGYNGSCFNVEIKRNDDLSWLWNESTALYPSIYLNTQQSPVAATLYVRNRVREAIRVSKIPDAKSPLPVFAYTRIVFTDQVLKFLSQDELVYTFGETVALGASGIVIWGTLSIMRSMKSCLLLDNYMETILNPYIINVTLAAKMCSQVLCQEQGVCIRKNWNSSDYLHLNPDNFAIQLEKGGKFTVRGKPTLEDLEQFSEKFYCSCYSTLSCKEKADVKDTDAVDVCIADGVCIDAFLKPPMETEEPQIFYNASPSTLSATMFIVSILFLIISS
chain 2: LNFRAPPVIPNVPFLWAWNAPSEFCLGKFDEPLDMSLFSFIGSPRINATGQGVTIFYVDRLGYYPYIDSITGVTVNGGIPQKISLQDHLDKAKKDITFYMPVDNLGMAVIDWEEWRPTWARNWKPKDVYKNRSIELVQQQNVQLSLTEATEKAKQEFEKAGKDFLVETIKLGKLLRPNHLWGYYLFPDCYNHHYKKPGYNGSCFNVEIKRNDDLSWLWNESTALYPSIYLNTQQSPVAATLYVRNRVREAIRVSKIPDAKSPLPVFAYTRIVFTDQVLKFLSQDELVYTFGETVALGASGIVIWGTLSIMRSMKSCLLLDNYMETILNPYIINVTLAAKMCSQVLCQEQGVCIRKNWNSSDYLHLNPDNFAIQLEKGGKFTVRGKPTLEDLEQFSEKFYCSCYSTLSCKEKADVKDTDAVDVCIADGVCIDAFLKPPMETEEPQIFYNASPSTLSATMFIVSILFLIISS
modifications: HuPH20 precursor 1-505; mature HuPH20 36-505
Take B2: in data set [2] (Table 6), the “pH 5.5 Activity” value came out at 0.837 Units/ml and the “pH 7.4 Activity” value turned out to be 1.458 Units/ml. In data set [2] (Table 6A), the “pH 5.5 Activity” value came out at 0.932 Units/ml and the “pH 7.4 Activity” value is reported as 1.863 Units/ml. Besides, the “Expressed” value in the data set on CHO-S cells is on record as “YES”.

B3: SPAM1-FLII: C-terminally truncated human PH20, precursor 503 aa (SEQ ID NO:5), mature 468 aa (SEQ ID NO:57) (protein, listed as Homo sapiens)
chain 1: MGVLKFKHIFFRSFVKSSGVSQIVFTFLLIPCCLTLNFRAPPVIPNVPFLWAWNAPSEFCLGKFDEPLDMSLFSFIGSPRINATGQGVTIFYVDRLGYYPYIDSITGVTVNGGIPQKISLQDHLDKAKKDITFYMPVDNLGMAVIDWEEWRPTWARNWKPKDVYKNRSIELVQQQNVQLSLTEATEKAKQEFEKAGKDFLVETIKLGKLLRPNHLWGYYLFPDCYNHHYKKPGYNGSCFNVEIKRNDDLSWLWNESTALYPSIYLNTQQSPVAATLYVRNRVREAIRVSKIPDAKSPLPVFAYTRIVFTDQVLKFLSQDELVYTFGETVALGASGIVIWGTLSIMRSMKSCLLLDNYMETILNPYIINVTLAAKMCSQVLCQEQGVCIRKNWNSSDYLHLNPDNFAIQLEKGGKFTVRGKPTLEDLEQFSEKFYCSCYSTLSCKEKADVKDTDAVDVCIADGVCIDAFLKPPMETEEPQIFYNASPSTLSATMFIVSILFLII
chain 2: LNFRAPPVIPNVPFLWAWNAPSEFCLGKFDEPLDMSLFSFIGSPRINATGQGVTIFYVDRLGYYPYIDSITGVTVNGGIPQKISLQDHLDKAKKDITFYMPVDNLGMAVIDWEEWRPTWARNWKPKDVYKNRSIELVQQQNVQLSLTEATEKAKQEFEKAGKDFLVETIKLGKLLRPNHLWGYYLFPDCYNHHYKKPGYNGSCFNVEIKRNDDLSWLWNESTALYPSIYLNTQQSPVAATLYVRNRVREAIRVSKIPDAKSPLPVFAYTRIVFTDQVLKFLSQDELVYTFGETVALGASGIVIWGTLSIMRSMKSCLLLDNYMETILNPYIINVTLAAKMCSQVLCQEQGVCIRKNWNSSDYLHLNPDNFAIQLEKGGKFTVRGKPTLEDLEQFSEKFYCSCYSTLSCKEKADVKDTDAVDVCIADGVCIDAFLKPPMETEEPQIFYNASPSTLSATMFIVSILFLII
modifications: HuPH20 precursor 1-503; mature HuPH20 36-503
Regarding B3, in data set [2] (Table 6), the “pH 5.5 Activity” value is 0.6345 Units/ml and the “pH 7.4 Activity” value came out at 0.9405 Units/ml. Also, in data set [2] (Table 6A), the “pH 5.5 Activity” value is on record as 0.648 Units/ml and the “pH 7.4 Activity” value amounted to 1.094 Units/ml. For the same molecule, in the data set with CHO-S cells, the “Expressed” value is reported as “YES”.

The values are drawn from patent publication US9284543B2, “Neutral active soluble truncated PH20 polypeptides and uses thereof” (Halozyme, Inc., priority 2008, dated 2016).
